This passage reports Kd results from patent US20180155451A1 (published 2018).

Numbering of substitutions follows the chain as printed.

The target in assay [1] is T1, FcγRIIIa V type extracellular domain with C-terminal His tag (human, UniProt P08637 17-208).
T1 construct: extracellular domain; also called FcgRIIIa V; FcgRIIIaV; not shown: His tag at the C terminus
The assay is described as follows: SPR (Biacore), antibody captured on chip, soluble FcgR as analyte; experiment 3. The protocol:
(§1) Antibodies of interest were analyzed for the interaction to FcgR according to the method described in Reference Example 8.
(§2) Analysis of interaction between obj ective antibody and the FcγR was carried out using Biacore T100 (GE Healthcare), Biacore T200, Biacore A100, and Biacore 4000. HBS-EP+ (GE Healthcare) was used as the running buffer, and the measurement temperature was set to 25° C. Chips produced by immobilizing the antigen peptide by the amine coupling method to a Series S sensor Chip CM5 (GE Healthcare), chips produced by allowing preliminarily biotinylated antigen peptides to interact with and immobilize onto a Series S Sensor Chip SA (certified) (GE Healthcare), chips produced by immobilizing Protein L (ACTIGEN, BioVision) to Series S Sencor Chip CM5 (GE Healthcare), or chips produced by immobilizing Protein A/G (Thermo Scientific) to Series S Sencor Chip CM5 (GE Healthcare) were used. Antibodies of interest were captured onto these chips, and allowed to interact to each FcγR diluted with running buffer. To regenerate and repeatedly use the chip, the antibodies captured onto the chip were washed off by reacting 10 mM glycine-HCl, pH 1.5.
A general note: Surface plasmon resonance follows binding to a sensor surface in real time, without labels.

The target of assay [2] is T2, FcγRIIb extracellular domain with C-terminal His tag (human, UniProt P31994 43-217).
T2 construct: extracellular domain; also called FcgRIIb; 2b; not shown: His tag at the C terminus
T2 sequence (looked up): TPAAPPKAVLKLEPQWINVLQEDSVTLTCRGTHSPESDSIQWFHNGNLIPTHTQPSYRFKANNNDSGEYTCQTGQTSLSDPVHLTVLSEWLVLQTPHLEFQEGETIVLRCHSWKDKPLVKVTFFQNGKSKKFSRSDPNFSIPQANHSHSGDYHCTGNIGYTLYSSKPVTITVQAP
Described as above. The protocol: as §1, §2

Assay [3] addresses T3, FcγRIIa H type extracellular domain with C-terminal His tag (human, UniProt P12318 34-217).
T3 construct: extracellular domain; also called FcgRIIa H; FcgRIIaH; not shown: His tag at the C terminus
T3 sequence (looked up): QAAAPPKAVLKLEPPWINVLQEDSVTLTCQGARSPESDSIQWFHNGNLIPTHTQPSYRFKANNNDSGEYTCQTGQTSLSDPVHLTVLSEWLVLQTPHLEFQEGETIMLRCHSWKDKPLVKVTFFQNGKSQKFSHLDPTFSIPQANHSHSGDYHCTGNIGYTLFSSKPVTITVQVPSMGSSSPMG
Described as above. The method, then: as §1, §2

Assay [4] concerns the target T4, FcγRIIIa F type extracellular domain with C-terminal His tag (human, UniProt P08637 17-208).
T4 construct: extracellular domain; also called FcgRIIIa F; FcgRIIIaF; not shown: His tag at the C terminus
Described as above. The protocol: as §1, §2

Assay [5] has as its target T5, FcγRIIa R type extracellular domain with C-terminal His tag (human, UniProt P12318 34-217).
T5 construct: extracellular domain; also called FcgRIIa R; FcgRIIaR; not shown: His tag at the C terminus
T5 sequence (looked up): T3 sequence (looked up) with H134R
Described as above. The method, then:
as §1, §2

The target in assay [6] is T6, FcγRIa extracellular domain with C-terminal His tag (human, UniProt P12314 16-292).
T6 construct: extracellular domain; also called FcgRI; FcgRIa; not shown: His tag at the C terminus
The description is as above. The method, then: as §1, §2

In assay [7] the target is T1, FcγRIIIa V type extracellular domain …. Nature of the assay: SPR (Biacore), antibody captured on chip, soluble FcgR as analyte; experiment 2. The protocol: as §1, §2
The target of assay [8] is T2, FcγRIIb extracellular domain with …. The assay is described as above. The protocol:
as §1, §2

The target of assay [9] is T3, FcγRIIa H type extracellular domain …. Described as above. The protocol: as §1, §2
The target in assay [10] is T4, FcγRIIIa F type extracellular domain …. Described as above. The method, then:
as §1, §2

Assay [11] addresses T5, FcγRIIa R type extracellular domain …. The description is as above. The protocol: as §1, §2
The target in assay [12] is T6, FcγRIa extracellular domain with …. The assay is described as above. The method, then: as §1, §2
Assay [13] concerns the target T1, FcγRIIIa V type extracellular domain …. The assay is described as follows: SPR (Biacore), antibody captured on chip, soluble FcgR as analyte; experiment 1.
In assay [14] the target is T2, FcγRIIb extracellular domain with …. The assay is described as above.
Assay [15] addresses T3, FcγRIIa H type extracellular domain …. Described as above.
Assay [16] deals with T4, FcγRIIIa F type extracellular domain …. The description is as above.
The target in assay [17] is T5, FcγRIIa R type extracellular domain …. Described as above.
Assay [18] deals with T6, FcγRIa extracellular domain with …. The description is as above.
Assay [19] addresses T1, FcγRIIIa V type extracellular domain …. The assay is described as follows: SPR (Biacore), antibody captured on chip, soluble FcgR as analyte; experiment 1 (second row of this antibody). The protocol: as §1, §2
In assay [20] the target is T2, FcγRIIb extracellular domain with …. The assay is described as above. The method, then:
as §1, §2

Assay [21] has as its target T3, FcγRIIa H type extracellular domain …. The assay is described as above. The protocol: as §1, §2
Assay [22] concerns the target T4, FcγRIIIa F type extracellular domain …. The assay is described as above. The method, then:
as §1, §2

Assay [23] deals with T5, FcγRIIa R type extracellular domain …. The assay is described as above. The method, then: as §1, §2
In assay [24] the target is T6, FcγRIa extracellular domain with …. The description is as above. The protocol: as §1, §2

T6 sequence (P12314 16-292): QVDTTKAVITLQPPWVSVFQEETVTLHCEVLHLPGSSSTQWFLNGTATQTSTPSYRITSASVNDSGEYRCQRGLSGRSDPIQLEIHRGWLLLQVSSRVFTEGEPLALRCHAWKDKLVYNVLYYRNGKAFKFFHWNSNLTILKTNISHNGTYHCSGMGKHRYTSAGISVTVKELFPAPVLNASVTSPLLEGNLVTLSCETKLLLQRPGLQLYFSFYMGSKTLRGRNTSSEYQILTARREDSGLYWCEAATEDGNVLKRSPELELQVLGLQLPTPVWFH
T1 sequence (P08637 17-208 F176V): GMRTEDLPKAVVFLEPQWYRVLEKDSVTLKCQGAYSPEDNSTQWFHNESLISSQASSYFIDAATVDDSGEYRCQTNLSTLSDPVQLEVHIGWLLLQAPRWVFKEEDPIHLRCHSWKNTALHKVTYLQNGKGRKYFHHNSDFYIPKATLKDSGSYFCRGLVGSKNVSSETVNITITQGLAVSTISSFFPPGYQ
T4 sequence (P08637 17-208): as the sequence (P08637 17-208 F176V) above, with V160F counted along it

B1: H240-AK072/H240-BH076/L73-k0 (antibody, human IgG1, kappa)
heavy 1: QDQLVQSGAEVKKPGASVKVSCKASGFNIKDTYIQWVRQAPGQGLEWMGRIDPLRKQTKYREKFEGRVTITADTSTNTAYMELSSLRSEDTAVYYCVRSGREFDYWGQGTLVTVSSASTKGPSVFPLAPSSKSTSGGTAALGCLVKDYFPEPVTVSWNSGALTSGVHTFPAVLQSSGLYSLSSVVTVPSSSLGTQTYICNVNHKPSNTKVDKKVEPKSCDKTHTCPPCPAPEYYWGPSVFLFPPKPKDTLMISRTPEVTCVVVDVSDEEPEVKFNWYVDGVEVHNAKTKPREEQYNATYRVVSVLTVLHQDWLNGKEYKCKVSNKALPAPIEKTISKAKGQPREPQVYTLPPSRKEMTKNQVSLTCLVKGFYPSDIAVEWESNGQPENNYKTTPPVLDSDGSFFLYSKLTVDKSRWQQGNVFSCSVMHEALHNRYTQKSLSLSP
heavy 2: QDQLVQSGAEVKKPGASVKVSCKASGFNIKDTYIQWVRQAPGQGLEWMGRIDPLRKQTKYREKFEGRVTITADTSTNTAYMELSSLRSEDTAVYYCVRSGREFDYWGQGTLVTVSSASTKGPSVFPLAPSSKSTSGGTAALGCLVKDYFPEPVTVSWNSGALTSGVHTFPAVLQSSGLYSLSSVVTVPSSSLGTQTYICNVNHKPSNTKVDKKVEPKSCDKTHTCPPCPAPELLGGPSVFLFPPKPKDTLMISRTPEVTCVVVDVSHEEPEVKFNWYVDGVEVHNAKTKPREEQYNSTYRVVSVLTVLHQDWLNGKEYKCKVSNDALPMPIEETISKAKGQPREPQVYTLPPSREEMTKNQVSLTCLVKGFYPSDIAVEWESNGQPENNYKTTPPVLDSDGSFFLYSKLTVDKSRWQQGNVFSCSVMHEALHNHYTQESLSLSP
light: DIQMTQSPSSLSASVGDRVTITCRASQDIHKYIAWYQQKPGQAPRLLIQYTSTLQPGVPSRFSGSGSGTDYTFTISSLQPEDIATYYCLQYEQLRTFGGGTKVEIKRTVAAPSVFIFPPSDEQLKSGTASVVCLLNNFYPREAKVQWKVDNALQSGNSQESVTEQDSKDSTYSLSSTLTLSKADYEKHKVYACEVTHQGLSSPVTKSFNRGEC
notes: Heterodimerized anti-epiregulin (EREG) IgG1 antibody with two different H chains
One may read the Kd as the free concentration of one partner at which half of the binding sites on the other are occupied at equilibrium, for simple one-to-one binding. A high value points to a looser complex. As for B1, the Kd in assay [1] is 1.2 nM; in assay [2], 1400 nM; in assay [3], 79 nM; in assay [4] it was 3.7 nM; in [5], 240 nM; in assay [6] it was 0.11 nM. Moreover, the Kd was 1.2 nM in [7]; 1500 nM in assay [8]; 69 nM in assay [9]; 3.7 nM in [10]; 280 nM in assay [11]; 0.12 nM in assay [12]. In addition, the Kd in assay [13] worked out at 0.99 nM; in assay [14] it was 1300 nM; in assay [15] it was 72 nM; in assay [16], 2.9 nM; in [17] it was 240 nM; in [18] it was 0.11 nM.

B2: H240-FA030/H240-FB059/L73-k0 (antibody, human IgG1, kappa)
heavy 1: B1 heavy 1 with Q195K, I198T, E271K
heavy 2: B1 heavy 2 with G137E, K146E, K273Q, K287E
light: B1 light
notes: Heterodimerized anti-EREG IgG1 antibody; A chain altered from H240-AK072, B chain altered from H240-BH076
With B2, the equilibrium dissociation constant (Kd) in assay [19] came out at 1.2 nM; in assay [20] it was 1500 nM; in [21], 85 nM; in [22], 3.9 nM; in [23] it was 260 nM; in [24], 0.082 nM. Moreover, the Kd was 1.4 nM in [13]; 1500 nM in assay [14]; 85 nM in assay [15]; 4.8 nM in assay [16]; 250 nM in [17]; 0.12 nM in assay [18].
